Measurements taken from patent publication US20250114467A1 (SHANGHAI FUDAN ZHANGJIANG BIO PHARMACEUTICAL, published 2025).

B1: ch23G2 (antibody, human IgG1, kappa, V domains shown)
VH: QVQLQQSGPELVRPGVSVKISCKGSGYTFTDYAIHWVKQSRAKSPEWIGIVSTDSGKTSFNQKFKGKATMTVDKSSTTAYMELVRLTSEDSAIYYCARNPYYDYDGYAMDYWGQGTSVTVSS
VL: DIQMTQSSSYLSVSLGGRVTIICKASDHINNWLAWYQQKPGNAPRLIISGATSLETGVPSRFSGSGSGKDYTLSITSLQTEDVATYYCQQYWSIPYTFGGGTKLEIKR
notes: Chimeric: murine variable regions on human IgG1 heavy and kappa light constant regions; also called chimeric antibody 23G2
B2: ch10B1 (antibody, human IgG1, kappa, V domains shown)
VH: DVKLVESGGGLVKPGGSLKLSCAASGFTFSNYTISWVRQTPEKRLEWVATFSSGGSYTYYSDSVKGRFTISRDNAKNTLYLQMSSLKSEDTAMYYCSRDRRSDGYYHLYAMDYWGQGTSVTVSS
VL: DIQMTQTTSSLSASLGDRVTISCRASQDISHYLNWYQQKPDGTVKLLIYYTSRLHSGVPSRFSGSGSGTAYSLTISNLEQEDIATYFCQQGYTLPLTFGAGTKLELKR
notes: Chimeric: murine variable regions on human IgG1 heavy and kappa light constant regions; also called chimeric antibody 10B1
B3: ch6A2 (antibody, human IgG1, kappa, V domains shown)
VH: EVQLQQSGPELVKPGASVKISCKASGYTFTDYNMNWVKQSQGKSLEWIGYIYPYNGGTGYNQKFKTKATLTVDNSSSTAYMEFRSLTSEDSAVYYCARSDPYYTMDYWGQGTSVTVSS
VL: IIVMTQTPKFLLVSAGDRVTISCKASQSVNNDVAWYQQKPGQSPKLLIYFTSNRFTGVPDRFTGSGYGTDFTFTISSVQAEDLAVYFCQQDHNSPYTFGGGTKLEIKR
notes: Chimeric: murine variable regions on human IgG1 heavy and kappa light constant regions; also called chimeric antibody 6A2
B4: ch32E8 (antibody, human IgG1, kappa, V domains shown)
VH: QVTLKESGPGILQPSQTLSLTCSFSGFSLSTSGMGVGWIRQPSGKGLEWLALIWWDDVKRYHPALKSRLTISKDTSSSQVFLKIASVDTADTATYYCARIAEVTGQVGLHYAMDYWGQGTSVTVSS
VL: QTVLTQSPAIMSASLGERVTMTCTASSSVNSSSLHWYQQKPGSSPKLWIYTTSNLASGVPARFSGSGSGTSYSLTISSMEAEDAATYYCHQFHRSPFTFGSGTKLEIKR
notes: Chimeric: murine variable regions on human IgG1 heavy and kappa light constant regions; also called chimeric antibody 32E8
B5: ch13C2 (antibody, human IgG1, kappa, V domains shown)
VH: EVKLVESGGGLVKPGGSLKLSCAASGFAFSSYDMSWVRQTPEKRLEWVATISSGGSYTYYPDSVKGRFTISRDNGRNTLYLQMSSLRSEDTALYYCASPLLGLRFAYWGQGTLVTVSA
VL: QAVVTQESALTTSPGETVTLTCRSSTGAVTTINYANWVQEKPDHLFTGLIGGTNNRAPGVPARFSGSLIGDKAALTITGAQTEDEAIYFCALYYSNHWVFGGGTKLTVLR
notes: Chimeric: murine variable regions on human IgG1 heavy and kappa light constant regions; also called chimeric antibody 13C2
B6: ch33F11 (antibody, human IgG1, kappa, V domains shown)
VH: EVQLQQSGPELVKPGASVKISCKTSGYTFTENTMHWVKQSHGESLEWIGGINPRNGVTSYNQKFKGKATLTVDKSSSTAYMELRSLTSEDSAVYYCTNTYYRDYFDYWGQGTTLTVSS
VL: NIVMTQSPKSMSMSVGERVTLSCKASENVGTYVSWYQQKPDQSPKLLIYGASNRYTGVPDRFTGSGSPTDFTLTISRMQAEDLAHYYCGQTYTYPLTFGAGTKLELKR
notes: Chimeric: murine variable regions on human IgG1 heavy and kappa light constant regions; also called chimeric antibody 33F11
B7: ch1A5 (antibody, human IgG1, kappa, V domains shown)
VH: EVQLQQSGPELVKPGASVKISCKTSGYTFTESAMHWVKQSHGKSLEWIGGINPNNGGISYSQKFKGKATLTVDKSSSTAYMELRSLTSEDSAVYYCGSSYYRDYFDYWGQGTTLTVSS
VL: NIVMTQSPESMSMSVGERVTLSCKASENVGTYVSWYQQKPDQSPKLLIYGASNRYTGVPDRFTGSGSATHFTLTISSVQAEDLADYHCGQSYSYPLTFGAGTKLELKR
notes: Chimeric: murine variable regions on human IgG1 heavy and kappa light constant regions, expressed in 293F cells; also called chimeric antibody 1A5
B8: ch19C7 (antibody, human IgG1, kappa, V domains shown)
VH: EVQLQQSGPELVRPGASVRMSCKASGYTFTYYVMHWVKQKPGLGLEWIGYINPYNDGTEYNEKFKGKATLTSDKSSSTAFMELSSLTSEDSAVYYCARWLLREYAMDYWGQGTSVTVSS
VL: DIQMTQSPASLSASVGETVTITCRASDNIHNYLAWYQQKQGKSPQLLVYNAKTLADGVPSRFSGSGSGTQYSLKINSLQPEDFGSYYCQHFWSTPWTFGGGTKLEIKR
notes: Chimeric: murine variable regions on human IgG1 heavy and kappa light constant regions; also called chimeric antibody 19C7
B9: ch26D9 (antibody, human IgG1, kappa, V domains shown)
VH: EVQLQQSGPELVKPGASVKMSCKASGYTFTTYVMHWVKQKPGQGLEWIGYINPYNDDTNYNEKFKGKATLTSDKSSSTAYMELSSLTSEDSAVYYCARWGLTGTGDYYAMDYWGQGTSVTVSS
VL: DIQMTQSPASLSASVGETVTITCRASGNVHNYLAWYQQKQGRSPQVLVYNAKTLADGVPSRFSGSGSGTQYSLKINSLLPEDFGSYYCQHFWTTPWTFGGGTTLEIKR
notes: Chimeric: murine variable regions on human IgG1 heavy and kappa light constant regions; also called chimeric antibody 26D9
B10: ch15G2 (antibody, human IgG1, kappa, V domains shown)
VH: EVQLQQSGPELEKPGASVRISCKASGYSFTDYNMHWVKQSNGKSLEWIGNIDPYYGGTNYNQKFEGKATLTVDKSSSTAYMQLKSLTSEDSAVYYCARGGNNYGDYWGQGTTLTVSS
VL: DIQMTQSPASLAASVGETVTITCRASENIYYSLAWYQQKQGKSPQLLIFNANSLEDGVPSRFSGSGSGTQYSMKINSMQPEDTATYFCKQAYDVPWTFGGGTKLEIKR
notes: Chimeric: murine variable regions on human IgG1 heavy and kappa light constant regions; also called chimeric antibody 15G2

molecular target: T1, human DLL4 (purchased from Acro, DL4-H5227) (human, UniProt Q9NR61 27-524); test: ELISA, plate-coated protein 1 µg/ml
T1 construct: Bought; also called hDLL4
T1 sequence (Q9NR61 27-524 limits assumed): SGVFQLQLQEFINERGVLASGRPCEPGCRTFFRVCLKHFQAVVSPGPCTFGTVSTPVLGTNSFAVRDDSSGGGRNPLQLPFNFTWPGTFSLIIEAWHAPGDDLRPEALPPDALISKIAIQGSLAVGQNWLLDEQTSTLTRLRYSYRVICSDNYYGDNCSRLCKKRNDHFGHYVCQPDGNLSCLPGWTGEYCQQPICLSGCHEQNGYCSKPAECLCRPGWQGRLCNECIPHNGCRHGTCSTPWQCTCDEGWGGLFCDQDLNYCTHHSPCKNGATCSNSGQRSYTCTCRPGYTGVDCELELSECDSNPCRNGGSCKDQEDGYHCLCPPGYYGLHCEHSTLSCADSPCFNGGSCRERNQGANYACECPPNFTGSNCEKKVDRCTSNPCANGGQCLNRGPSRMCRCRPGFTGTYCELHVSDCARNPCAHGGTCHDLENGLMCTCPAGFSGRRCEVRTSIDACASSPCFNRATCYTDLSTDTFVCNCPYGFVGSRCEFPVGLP
Procedure: The chimeric antibodies obtained in Example 6 were evaluated for their binding abilities to human DLL1 (purchased from Acro, DL1-H52H8) and DLL4 (purchased from Acro, DL4-H5227) proteins using the ELISA method. The ELISA detection method involved diluting DLL1 and DLL4 proteins with PBS to a final concentration of 1 μg/ml and coating them onto 384-well ELISA plates (purchased from Corning, 3700) at 4° C. overnight. The next day, the supernatant in the plate wells was discarded, and the wells were blocked with 80 μl of 3% milk (dissolved in PBS) for 2 hours, followed by washing three times with 80 μl of PBST (0.1% Tween20). […] After washing with 80 μl of PBST (0.1% Tween20) for five times, 25 μl of HRP-labeled goat anti-human secondary antibody (Jackson, 1:10000) was added to each well and incubated at room temperature for 1 hour, discard the supernatant, and the wells were then washed seven times with 80 μl of PBST (0.1% Tween20). After adding 25 μl of TMB chromogen solution for 10 minutes, the reaction was terminated with 2M HCl, and the absorbance value at 450 nm was measured with a Microplate reader (purchased from Biotek, Elx808). […] To assess the cross-reactivity of the antibodies with mouse and monkey DLL3, mouse DLL3-expressing plasmid pCMV3-mDLL3 (purchased from Beijing Yiqiao, MG58052-UT) and monkey DLL3-expressing plasmid pCMV3-rheDLL3 (purchased from Beijing Yiqiao, CG90919-UT) were used to construct overexpressing cell lines. The construction of overexpressing cells was as described in Examples 2-3. The binding abilities of the chimeric antibodies to these cells were determined by flow cytometry to assess the cross-reactivity of the antibodies with different species.

Q: Does B1 bind?
A: no binding (tested: up to 20 µg/ml)

Q: Does B2 bind?
A: no binding (tested: up to 20 µg/ml)

molecular target: T2, human DLL3, His tag (acrobiosystems, DL3-H52H4) (human, UniProt Q9NYJ7 27-492); test: BLI (Octet 96e), antibody on sensor, DLL3-His 100-3.13 nM in solution
T2 construct: Bought; also called human DLL3 protein; free DLL3; not shown: His tag
T2 sequence (looked up): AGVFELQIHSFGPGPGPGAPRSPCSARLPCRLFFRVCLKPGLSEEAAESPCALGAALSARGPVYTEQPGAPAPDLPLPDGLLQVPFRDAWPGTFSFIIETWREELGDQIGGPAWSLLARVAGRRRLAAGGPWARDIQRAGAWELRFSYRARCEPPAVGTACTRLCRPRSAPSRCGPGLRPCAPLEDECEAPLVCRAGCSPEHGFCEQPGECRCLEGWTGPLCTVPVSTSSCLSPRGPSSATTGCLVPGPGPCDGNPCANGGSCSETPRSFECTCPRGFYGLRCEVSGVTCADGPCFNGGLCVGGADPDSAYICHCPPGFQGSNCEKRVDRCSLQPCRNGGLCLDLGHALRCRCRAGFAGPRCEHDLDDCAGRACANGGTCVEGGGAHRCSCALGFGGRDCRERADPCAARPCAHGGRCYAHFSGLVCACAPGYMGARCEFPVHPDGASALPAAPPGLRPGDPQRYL
Procedure: To assess the affinity of antibodies for human DLL3 protein, this study employed the BLI method to detect the binding kinetics curves of immobilized antibodies with free DLL3. The method was conducted according to the instrument's user manual (supplier: Fortebio, equipment model: Octet 96e). Briefly, AMC sensors were equilibrated for 60 s with Loading Buffer/Sample dilution buffer (1×PBS, pH7.4, with 0.1% BSA and 0.02% Tween-20) to obtain Baseline 1. The antibodies to be detected were diluted with Loading Buffer to a concentration of 10 ug/ml and bound to the equilibrated sensors, after which the sensors were re-equilibrated with Loading Buffer to obtain Baseline 2. The antibody-loaded sensors were then placed in human DLL3, His tag (supplier: acrobiosystems, catalog number: DL3-H52H4) diluted with Sample Dilution Buffer to concentrations ranging from 100 to 3.13 nM for 90 s to obtain the antibody-protein binding curve. Then, the sensors combined with antigen were placed in the Sample Dilution Buffer again and dissociated for 180 s, and the dissociation curve was obtained. The k-on and k-off values of the antibody-protein binding were calculated based on the binding and dissociation curves, and the KD values were calculated, with the results shown in Table 4.

Q: Which Kd does the source give for B3 here?
A: 466 pM

Q: And the koff?
A: 0.000684 s⁻¹

Q: And the kon?
A: 1.47e+06 M⁻¹ s⁻¹

Q: How did the Kd turn out when B4 was run?
A: 90 pM

Q: And the koff?
A: 0.000134 s⁻¹

Q: What about the kon of the same binder?
A: 1.49e+06 M⁻¹ s⁻¹

Q: B5 was tested. Which Kd did it give?
A: 5370 pM

Q: And the koff?
A: 0.0012 s⁻¹

Q: What about the kon of the same binder?
A: 223000 M⁻¹ s⁻¹

Q: For B6, which Kd is on record?
A: 52.1 pM

Q: And the koff?
A: 6.31e-05 s⁻¹

Q: What about the kon of the same binder?
A: 1.21e+06 M⁻¹ s⁻¹

Q: Which results are given for B7?
A: Kd: 59.7 pM; koff: 7.4e-05 s⁻¹; kon: 1.24e+06 M⁻¹ s⁻¹

Q: For B1, which Kd is on record?
A: 15.8 pM

Q: What about the koff of the same binder?
A: 2.79e-05 s⁻¹

Q: What about the kon of the same binder?
A: 1.76e+06 M⁻¹ s⁻¹

Q: B2 was tested. Which Kd did it give?
A: 204 pM

Q: And the koff?
A: 0.000279 s⁻¹

Q: What about the kon of the same binder?
A: 1.37e+06 M⁻¹ s⁻¹

Q: B8 was tested. Which Kd did it give?
A: 739 pM

Q: And the koff?
A: 0.000962 s⁻¹

Q: What about the kon of the same binder?
A: 1.3e+06 M⁻¹ s⁻¹

Q: Which results are given for B9?
A: Kd: 38.1 pM; koff: 6.58e-05 s⁻¹; kon: 1.73e+06 M⁻¹ s⁻¹

Q: How did the Kd turn out when B10 was run?
A: 70.2 pM

Q: What about the koff of the same binder?
A: 0.000121 s⁻¹

Q: What about the kon of the same binder?
A: 1.72e+06 M⁻¹ s⁻¹
